1 substance from doi:10.64898/2025.12.17.695035 can be followed below.

This assay deals with E. coli RNAP as used in the ITC experiments (E. coli) (UniProt P0A7Z4). Briefly: ITC. In general terms: ITC needs no label: the signal is the heat of the interaction.

For “Escherichia phage protein EP1 (from UniProt A0A0N9RSC1 1-107) (natural protein)”, the Kd was determined as 34 nM.

A word on the Kd: it is a measure of binding affinity in units of concentration. Low readings indicate a tighter complex, high ones a looser complex.
